Columns and labels:
[1] = target: CEA on LS174T colo-rectal tumour cells (UniProt P06731); assay: cell-based or functional assay
[2] = target: T1, CEA (Carcinoembryonic antigen), purified antigen (UniProt P06731 35-685, limits assumed); assay: CEA ELISA (50 ng CEA per well) on NS0 culture supernatants, detected with HRPO anti-human kappa
T1 construct: Purified CEA, 50 ng per well in the CEA ELISA; also called native CEA; untreated CEA
T1 sequence (looked up): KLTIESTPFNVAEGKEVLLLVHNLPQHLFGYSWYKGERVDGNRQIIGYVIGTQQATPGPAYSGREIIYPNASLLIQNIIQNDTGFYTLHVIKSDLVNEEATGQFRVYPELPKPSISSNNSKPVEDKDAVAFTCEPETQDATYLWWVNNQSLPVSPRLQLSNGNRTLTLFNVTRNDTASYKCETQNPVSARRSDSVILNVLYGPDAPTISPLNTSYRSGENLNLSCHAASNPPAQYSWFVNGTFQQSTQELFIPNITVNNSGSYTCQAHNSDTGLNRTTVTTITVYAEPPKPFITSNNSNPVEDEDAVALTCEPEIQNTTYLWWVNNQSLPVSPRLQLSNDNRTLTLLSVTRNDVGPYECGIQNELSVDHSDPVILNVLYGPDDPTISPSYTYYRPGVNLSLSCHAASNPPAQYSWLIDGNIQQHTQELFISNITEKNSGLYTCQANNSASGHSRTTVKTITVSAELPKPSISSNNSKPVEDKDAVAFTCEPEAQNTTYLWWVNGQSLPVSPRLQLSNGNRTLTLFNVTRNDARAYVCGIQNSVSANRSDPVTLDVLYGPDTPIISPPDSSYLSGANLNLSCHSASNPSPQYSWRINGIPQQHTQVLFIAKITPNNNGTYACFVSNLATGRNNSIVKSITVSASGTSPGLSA
Description: (§1) For the CEA ELISA each well of a 96 well immunoplate (NUNC MAXISORB™) was coated with 50 ng CEA in 50 mM carbonate/bicarbonate coating buffer pH9.6 (buffer capsules—Sigma C3041) and incubated at 4° C. overnight. The plate was washed three times with PBS+0.05% Tween 20 and then blocked 150 μl per well of 1% BSA in PBS +0.05% Tween 20 for 1 hour at room temperature. The plate was washed as previously described, 100 μl of test sample added per well and incubated at room temperature for 2 hours. Again the plate was washed three times with PBS+0.05% Tween 20, 100 μl per well of a 1/500 dilution of HRPO-labelled goat anti-human kappa antibody (Sigma A 7164) was added, in 1% BSA in PBS-Tween 20 and incubated at room temperature on a rocking platform for at least 1 hour. The plate was washed as before and then once more with PBS. To detect binding add 100 μl per well developing solution (one capsule of phosphate-citrate buffer—Sigma P4922—dissolved in 100 mls H₂O to which is added one 30 mg tablet o-phenylenediamine dihydrochloride—Sigma P8412) and incubated for up to 15 minutes. The reaction was stopped by adding 75 μl 2M H₂SO₄, and absorbance read at 490 nm.

[3] = target: T1, CEA (Carcinoembryonic antigen), …; assay: CEA ELISA on NS0 culture supernatants (Example 39)
Description: as §1
(§2) As before, the human F(ab′)₂ antibody fragment was then purified from the culture supernatant as described in Example 102.

[4] = target: T1, CEA (Carcinoembryonic antigen), …; assay: CEA ELISA on NS0 culture supernatants (Example 41)
Description: as §1, §2

[5] = target: T1, CEA (Carcinoembryonic antigen), …; assay: CEA ELISA on NS0 culture supernatants (Example 42)
Description: as §1, §2

[6] = target: T1, CEA (Carcinoembryonic antigen), …; assay: CEA ELISA on NS0 culture supernatants (Example 43)
Description: as §1, §2

[7] = target: T1, CEA (Carcinoembryonic antigen), …; assay: CEA ELISA on NS0 culture supernatants (Example 14)
Description: as §1

[8] = target: T1, CEA (Carcinoembryonic antigen), …; assay: CEA ELISA on NS0 culture supernatants (Example 47)
Description: as §1, §2

[9] = target: T1, CEA (Carcinoembryonic antigen), …; assay: CEA ELISA on NS0 culture supernatants (Example 45)
Description: as §1, §2

[10] = target: T1, CEA (Carcinoembryonic antigen), …; assay: EIA of hybridoma supernatants against native CEA; line 806.077 was cloned from one of the positive wells
[11] = target: T1, CEA (Carcinoembryonic antigen), …; assay: CEA ELISA on media from NS0 clones, detected with anti-human kappa peroxidase conjugate
Description: Media from wells containing single viable clones was taken for testing and replaced with fresh media (containing G418).

## human B7.1-murine A5B7 F(ab')2 fusion protein (AB7)
[1]
  [3H] thymidine incorporation by T cells on anti-CD3 coated wells (T cells + LS174T/fusion protein): 41800 cpm
  [3H] thymidine uptake, fold over no co-stimulation: > 11 fold
  [3H] thymidine uptake, fold over tumour cells alone: > 3 fold

B1: humanised 806.077 HuVH1/HuVK1 HuIgG2 F(ab')2 (Initial humanised antibody) (antibody, V domains shown)
VH: EVQLQQSGPGLVRPSQTLSLTCTASGFNIKDNYMHWVRQPPGRGLEWIGWIDPENGDTEYAPKFRGRVTMLADTSKNQFSLRLSSVTAADTAVYYCHVLIYAGYLAMDYWGQGTLVTVSS
VL: DIQMTQSPSSLSASVGDRVTITCSASSSVTYMHWYQQKPGKAPKLLIYSTSNLASGVPSRFSGSGSGTDYTFTISSLQPEDIATYYCQQRSTYPLTFGQGTKLEIKR
notes: F(ab')2 fragment secreted by NS0 cells and tested as culture supernatant
[2]
  binding result: binds

B2: humanised 806.077 HuVH1/HuVK1 HuIgG1 F(ab')2 (antibody, V domains shown)
VH: EVQLQQSGPGLVRPSQTLSLTCTASGFNIKDNYMHWVRQPPGRGLEWIGWIDPENGDTEYAPKFRGRVTMLADTSKNQFSLRLSSVTAADTAVYYCHVLIYAGYLAMDYWGQGTLVTVSS
VL: DIQMTQSPSSLSASVGDRVTITCSASSSVTYMHWYQQKPGKAPKLLIYSTSNLASGVPSRFSGSGSGTDYTFTISSLQPEDIATYYCQQRSTYPLTFGQGTKLEIKR
notes: F(ab')2 fragment from NS0 supernatant; also called HuVH1-HuIgG1 + HuVK1-HuCK
[3]
  binding result: binds

B3: humanised 806.077 HuVH1/HuVK1 HuIgG3 F(ab')2 (antibody, V domains shown)
VH: EVQLQQSGPGLVRPSQTLSLTCTASGFNIKDNYMHWVRQPPGRGLEWIGWIDPENGDTEYAPKFRGRVTMLADTSKNQFSLRLSSVTAADTAVYYCHVLIYAGYLAMDYWGQGTLVTVSS
VL: DIQMTQSPSSLSASVGDRVTITCSASSSVTYMHWYQQKPGKAPKLLIYSTSNLASGVPSRFSGSGSGTDYTFTISSLQPEDIATYYCQQRSTYPLTFGQGTKLEIKR
notes: F(ab')2 fragment from NS0 supernatant; also called HuVH1-HuIgG3 + HuVK1-HuCK
[4]
  binding result: binds

B4: humanised 806.077 HuVH1/HuVK3 HuIgG1 F(ab')2 (antibody, V domains shown)
VH: EVQLQQSGPGLVRPSQTLSLTCTASGFNIKDNYMHWVRQPPGRGLEWIGWIDPENGDTEYAPKFRGRVTMLADTSKNQFSLRLSSVTAADTAVYYCHVLIYAGYLAMDYWGQGTLVTVSS
VL: QIVLTQSPSSLSASVGDRVTITCSASSSVTYMHWYQQKPGKAPKLLIYSTSNLASGVPSRFSGSGSGTDYTFTISSLQPEDIATYYCQQRSTYPLTFGQGTKLEIKR
notes: F(ab')2 fragment from NS0 supernatant; also called HuVH1-HuIgG1 + HuVK3-HuCK
[5]
  binding result: binds

B5: humanised 806.077 HuVH1/HuVK3 HuIgG2 F(ab')2 (antibody, V domains shown)
VH: EVQLQQSGPGLVRPSQTLSLTCTASGFNIKDNYMHWVRQPPGRGLEWIGWIDPENGDTEYAPKFRGRVTMLADTSKNQFSLRLSSVTAADTAVYYCHVLIYAGYLAMDYWGQGTLVTVSS
VL: QIVLTQSPSSLSASVGDRVTITCSASSSVTYMHWYQQKPGKAPKLLIYSTSNLASGVPSRFSGSGSGTDYTFTISSLQPEDIATYYCQQRSTYPLTFGQGTKLEIKR
notes: F(ab')2 fragment from NS0 supernatant
[6]
  binding result: binds

B6: humanised 806.077 HuVH1/HuVK4 HuIgG2 F(ab')2 (antibody, V domains shown)
VH: EVQLQQSGPGLVRPSQTLSLTCTASGFNIKDNYMHWVRQPPGRGLEWIGWIDPENGDTEYAPKFRGRVTMLADTSKNQFSLRLSSVTAADTAVYYCHVLIYAGYLAMDYWGQGTLVTVSS
VL: DIQMTQSPSSLSASVGDRVTITCSASSSVTYMHWYQQKPGKAPKLWIYSTSNLASGVPSRFSGSGSGTDYTFTISSLQPEDIATYYCQQRSTYPLTFGQGTKLEIKR
notes: as for B5
[7]
  binding result: binds

B7: humanised 806.077 HuVH1/HuVK4 HuIgG3 F(ab')2 (antibody, V domains shown)
VH: EVQLQQSGPGLVRPSQTLSLTCTASGFNIKDNYMHWVRQPPGRGLEWIGWIDPENGDTEYAPKFRGRVTMLADTSKNQFSLRLSSVTAADTAVYYCHVLIYAGYLAMDYWGQGTLVTVSS
VL: DIQMTQSPSSLSASVGDRVTITCSASSSVTYMHWYQQKPGKAPKLWIYSTSNLASGVPSRFSGSGSGTDYTFTISSLQPEDIATYYCQQRSTYPLTFGQGTKLEIKR
notes: F(ab')2 fragment from NS0 supernatant; also called HuVH1-HuIgG3 + HuVK4-HuCK
[8]
  binding result: binds

B8: humanised 806.077 HuVH1/HuVK4 HuIgG1 F(ab')2 (antibody, V domains shown)
VH: EVQLQQSGPGLVRPSQTLSLTCTASGFNIKDNYMHWVRQPPGRGLEWIGWIDPENGDTEYAPKFRGRVTMLADTSKNQFSLRLSSVTAADTAVYYCHVLIYAGYLAMDYWGQGTLVTVSS
VL: DIQMTQSPSSLSASVGDRVTITCSASSSVTYMHWYQQKPGKAPKLWIYSTSNLASGVPSRFSGSGSGTDYTFTISSLQPEDIATYYCQQRSTYPLTFGQGTKLEIKR
notes: F(ab')2 fragment from NS0 supernatant; also called HuVH1-HuIgG1 + HuVK4-HuCK
[9]
  binding result: binds

B9: 806.077 antibody (antibody, V domains shown)
VH: EVQLQQSGAELVRSGASVKLSCTASGFNIKDNYMHWVKQRPEQGLEWIAWIDPENGDTEYAPKFRGKATLTADSSSNTAYLHLSSLTSEDTAVYYCHVLIYAGYLAMDYWGQGTSVAVSS
VL: DIELTQSPAIMSASPGEKVTITCSASSSVTYMHWFQQKPGTSPKLWIYSTSNLASGVPARFSGSGSGTSYSLTISRMEAEDAATYYCQQRSTYPLTFGAGTKLELKR
notes: The cDNA primers hybridise to murine IgG1 CH1 and murine kappa constant regions
[10]
  binding result: binds

B10: pro-[A248S,G251T,D253K]HCPB-linker-F(ab')2(humanised 806.077) (other)
heavy: HHGGEHFEGEKVFRVNVEDENHINIIRELASTTQIDFWKPDSVTQIKPHSTVDFRVKAEDTVTVENVLKQNELQYKVLISNLRNVVEAQFDSRVRATGHSYEKYNKWETIEAWTQQVATENPALISRSVIGTTFEGRAIYLLKVGKAGQNKPAIFMDCGFHAREWISPAFCQWFVREAVRTYGREIQVTELLDKLDFYVLPVLNIDGYIYTWTKSRFWRKTRSTHTGSSCIGTDPNRNFDAGWCEIGASRNPCDETYCGPAAESEKETKALADFIRNKLSSIKAYLTIHSYSQMMIYPYSYAYKLGENNAELNALAKATVKELASLHGTKYTYGPGATTIYPSAGTSKDWAYDQGIRYSFTFELRDTGRYGFLLPESQIRATCEETFLAIKYVASYVLEHLYGGGSGGGSGGGSEVQLQQSGPGLVRPSQTLSLTCTASGFNIKDNYMHWVRQPPGRGLEWIGWIDPENGDTEYAPKFRGRVTMLADTSKNQFSLRLSSVTAADTAVYYCHVLIYAGYLAMDYWGQGTLVTVSSASTKGPSVFPLAPCSRSTSGGTAALGCLVKDYFPEPVTVSWNSGALTSGVHTFPAVLQSSGLYSLSSVVTVPSSSLGTQTYTCNVNHKPSNTKVDKRVELKTPLGDTTHTCPRCPEPKSCDTPPPCPRCPEPKSCDTPPPCPRCPEPKSCDTPPPCPRCPAPELLGG
light: DIQMTQSPSSLSASVGDRVTITCSASSSVTYMHWYQQKPGKAPKLWIYSTSNLASGVPSRFSGSGSGTDYTFTISSLQPEDIATYYCQQRSTYPLTFGQGTKLEIKRTVAAPSVFIFPPSDEQLKSGTASVVCLLNNFYPREAKVQWKVDNALQSGNSQESVTEQDSKDSTYSLSSTLTLSKADYEKHKVYACEVTHQGLSSPVTKSFNRGEC
notes: Antibody-enzyme fusion secreted by NS0 cells
[11]
  binding result: binds

Reference: patent US20020142359A1 (AstraZeneca / MedImmune, published 2002)
